Measurements taken from the nanobody polyreactivity screen of Harvey et al. (2022).

assay: yeast display, Sf9 membrane polyspecificity reagent, FACS + sequencing; frameworks hold sequencing errors
Method in brief: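 After 36–48 hours of galactose induction, yeast (Saccharomyces cerevisiae BJ5465) displaying a synthetic nanobody library were stained at 4 °C for 1 hour with 10% biotinylated, detergent-solubilized Sf9 membrane reagent. Streptavidin microbeads enriched the stained cells before FACS sorting into low and high (top ~1%) gates on anti-HA and streptavidin fluorescence. Each clone's polyreactivity label reflects its gate of origin.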

Row | Sequence | polyreactivity (PSR sort gate)
1 | QVQLVESGGGLVQAGGSLRLSCAASGITIGRYAMGWYRQAPGKERELVAAISWSGGSTYYADSVKGRFTISRDNAKNTVYLQMNSLKPEDTAVYYCNKLRRYSEYNADDGDYWGQGTQVTVSS | high polyreactivity
2 | QVQLVESGGGLVQAGGSLRLSCAASGITIKAYAMGWYRQAPGKERELVAAISGSGGSTYYADSVEGRFTISRDNAKNTVYLQMNSLKPEDTAVYYCAARAVSLTGYRFGYWGQGTQVTVSS | high polyreactivity
3 | QVQLVESGGGLVQAGGSLRLSCAASGITILNYVMGWYRQAPGKERELVAGINFSGDGTYYADSVKGRFTISRDNAKNTVFLLMNSLKPEDTAVYYCAADWLSVSRIYYSWGQGTQVTVSS | low polyreactivity
4 | QVQLVESGGGLVQAGGSLRLSCAASGITILWNVMGWYRQAPGKERELVATITSIGGITNYADSVKGRFTISRDNAKNTVYLQMNSLKPEDTAVYYCARDDRDIRGVSGREGFLYDYWGQGTQVTVSS | low polyreactivity
5 | QVQLVESGGGLVQAGGSLRLSCAASGITIRFYAMGWYRQAPGKERELVAAITRGGSTTYADSVKGRFTISRDNAKNTVYLQMNSLKPEDTAVYYCNAQYQSGYYTSYPDRFDYWGQGTQVTVSS | low polyreactivity
6 | QVQLVESGGGLVQAGGSLRLSCAASGITIRGYAMGWYRQAPGKERELVAAINTRTSTYYADSVKGRFTISRDNAKNTVYLQMNSLKPEDTAVYYCNRDPVYYDFDYWGQGTQVTVSS | low polyreactivity
7 | QVQLVESGGGLVQAGGSLRLSCAASGITIRRYAMGWYRQAPGKERELVAAITTGGGGTYYADSVKGRFTISRDNAKNTVYLQMNSLKPEDTAVYYCAATYWRTYPSYYWGQGTQVTVSS | high polyreactivity
8 | QVQLVESGGGLVQAGGSLRLSCAASGITIVNYVMGWYRQAPGKERELVAAISIGGGTYYADSVKGRFTISRDNAKNTVYLQMNSLKPEDTAVYYCNARSEVSYWWGGYWGQGTQVTVSS | low polyreactivity
9 | QVQLVESGGGLVQAGGSLRLSCAASGITIVWYAMGWYRLAPGKEREFVASISWRGGTTYYADSVKGRFTISRDNAKNTVDLQMNSLKPEDTAVYYCAARTRWWYRYDYWGQGTQVTVSS | high polyreactivity
10 | QVQLVESGGGLVQAGGSLRLSCAASGITIYHNAMGWYRPAPGKERELVAAISWSGGSTYYADSVKGRFTISRDNANNTVYLQMNSLKPEDSAVYYCAAYQRVREGHDYEYWGQGTQVSVSS | high polyreactivity
11 | QVQLVESGGGLVQAGGSLRLSCAASGITIYKNAMGWYRQAPGKERELFAAITRGGSTYYADSVKGRFTISRDNAKNTVYLQMNCLKPEDTAVYYCNKVYHWQTPGFGYGYWGQGTQVTVST | high polyreactivity
12 | QVQLVESGGGLVQAGGSLRLSCAASGITIYVYAMGWYRQAPGTERELVAAITRSGGITSYADSVKGRFTISRDNAKNTVYLQMNSLKPEDTAVYYVAAESTNLHYHIQGVGYWGQGTQVTVSS | low polyreactivity
13 | QVQLVESGGGLVQAGGSLRLSCAASGITLDRNYMGWYRQAPGKERELVAAISRSGVRTYYADSVKGRFTISRDNAKNTVYLQMNSLKPEDTAVYYCNKGYARRYASGYDYWGQGTQVTVSS | high polyreactivity
14 | QVQLVESGGGLVQAGGSLRLSCAASGITLDVNALGWYRQAPGKERELVADITWSDDSTYYADSVKGRFTISRDNAKNTVYLQMNSLKPEDTAVYYCAADVSVSFHPRGYDYWGQGTQVTVSS | low polyreactivity
15 | QVQLVESGGGLVQAGGSLRLSCAASGITLGRYAMGWYRQAPGKERELVAAISRSGGSTYYADSVKGRFTISRANAKTTVYLQMNSLKPEDTAVYYCNRRVYPTSDYDYWGQGTQVTVSS | high polyreactivity
16 | QVQLVESGGGLVQAGGSLRLSCAASGITLKLYVMGWYRQAPGKERELVAAISRRGGSTYYADSVKGRFTISRDNAKNTVYLQMNSLKPEDTAVYYCAKDGTQYERQDPAYGYWGQGTQVTVSS | high polyreactivity
17 | QVQLVESGGGLVQAGGSLRLSCAASGITLRLYAMGWYRQAPGKERELVAAISKRGGSTYYADSVKWRFTISRDNAKNTVYLQMNSQKPEDTAVYYCAADSGWEHRYDYWGQGTQVTVSS | high polyreactivity
18 | QVQLVESGGGLVQAGGSLRLSCAASGITLTVYTMGWYRQAPGKERKLVAAITYGGTSTYYADSVKGRFTISRDNAKNTVYLQMNSLKPEDTAVYYCAARARIYNYWGQGTQVTVSS | high polyreactivity
19 | QVQLVESGGGLVQAGGSLRLSCAASGITLTYYAMGWYRQAPGKERELVAAITWNGGHTYYADSVKGRFTISRDNAKNTVYLQMISQKPEDTAVYYCAAELWAYTWYWHSDYWGQGTQVTVSS | low polyreactivity
20 | QVQLVESGGGLVQAGGSLRLSCAASGITLYAYVMGWYRQAPGKERELVAAIRSGGSTYYADSVKGRFTISRDNAKNTVYLQKNSLKPEDTAVYYCAAYYPLWGWGYDYWGQGTQVTVSS | high polyreactivity
21 | QVQLVESGGGLVQAGGSLRLSCAASGITLYGNAMGWYRQAPGKEREFVAAISRSGDRTYYADSVKGRFTISRDNAKNTVYLPMYSLKPEDTAVYSCARDYRSYTGSYDTSYDYWGQGTQVTVSS | high polyreactivity
22 | QVQLVESGGGLVQAGGSLRLSCAASGITLYGYTMGWYRQAPGKERELVAGISRGGSTYYADSVKGRFTISRDNAKNSVYLEMNSLKPDVTAVYYCAAAGWYRGDYWGQGTQVTVSS | high polyreactivity

Row | Sequence | polyreactivity (PSR sort gate)
23 | QVQLVESGGGLVQAGGSLRLSCAASGITLYWYAMGWYRQAPGKERELVAAISRRGGTTYYADSVKGRFTISRDNAKNTVYLQMNSLKPEDTAVYYCAKAPDTQTSWSRQEGNYWGQGTQVTVSS | low polyreactivity
24 | QVQLVESGGGLVQAGGSLRLSCAASGITSCFSAMGWYRPAPGQERELVAGISSGGSTNYADSVKGRFTISRDNAKNTVYLQMTSLKPEDTAVYYCPATFYNRYETRYYYWGQGTQVTVSS | high polyreactivity
25 | QVQLVESGGGLVQAGGSLRLSCAASGITYEGYAMGWNRKAPGKERELVAAIRSSGTSTYYADSVKGRFTISRDNAKNSVYLQMNSLKPEDTAVYYCNRARSSSRYDYWGQGTQVTVSS | low polyreactivity
26 | QVQLVESGGGLVQAGGSLRLSCAASGITYPRYTMGWYRQAPGKERQLVAAITRRSGSTNYADSVKGRITISRDNAKNTVYLQMNSLKPEDTAVYYCAAVVQVYDRGYHVIAKYYYWGQGTQVTVSS | high polyreactivity
27 | QVQLVESGGGLVQAGGSLRLSCAASGITYYNAMGWYRQAAGKERELVARISWSSVSTYYADSVKGRFTISRDNAKNTVYLQMNSLKPEDTAVYYCAAEVRGSDYDYWGQGTQLTVSS | high polyreactivity
28 | QVQLVESGGGLVQAGGSLRLSCAASGIYINAMGWYRQAPGKERELVAAISRGGSTYYADSVKGRFTISRDNAKNTVYLKMNSLKPEDTAVYYCAKLIGRWRLYHTFVKGDYWGQGTQVTVSS | high polyreactivity
29 | QVQLVESGGGLVQAGGSLRLSCAASGIYPYYAMGWYRQAPGKERELVATISSADGPKYADSVKGRFTISRDNAKNTVYLQMNSLKPEDTAVYYCNAYVWSWHDYWGQGTQVTVSS | low polyreactivity
30 | QVQLVESGGGLVQAGGSLRLSCAASGLICPLNAMGWYRQAPGKERELVAAITYSGGGTYYADSVKGRFTISRDNAKNTVDLQMNSLKAEDTAVYYCAADGSVSYYTYYYWGQGTHVTVSS | low polyreactivity
31 | QVQLVESGGGLVQAGGSLRLSCAASGLIDSYYAMGWYRQAPGKERELVAVITSGGSTYYADSVKGRFTISRDNAKNTVYLQMNSLNPEDTAVYYCAARVRVSYNRYHGLYAVSRGDYWGQGTQVTVSS | high polyreactivity
32 | QVQLVESGGGLVQAGGSLRLSCAASGLIFAEYAMGWYRQAPGKERELVARITSGGSTDYADSVKGRFTISRDNAKNTVYLQMNSLKPEDTAVYYCAARYYSQDKNASTASDFDYWGQGTQVTVSS | low polyreactivity
33 | QVQLVESGGGLVQAGGSLRLSCAASGLIFAGYAMGWYRQAPGKERELVAAITWRGGRTYADSVKGRFTISRDNAKNTVYLQMNSLKPEDTAVYYCAVRRWGTSFVEDDYWGQGTQVTVSS | low polyreactivity
34 | QVQLVESGGGLVQAGGSLRLSCAASGLIFAQYAMGWYRQAPGKEREFVAAISYSGGNTYYADSVKGRFTISRDNAKNTVYLQMNSLKPEDTAVYYCAADYYWYHYAGWVGQYGYWGQGTQVTVSS | low polyreactivity
35 | QVQLVESGGGLVQAGGSLRLSCAASGLIFAYNTMGWYRQAPGKERELVAGITSSGSTYYADSVKGRFTISRDNEKNTVYLQMNSLKPEDTAVYYCAAEWDDGRSWYWYYLVGFEYWGQGTQVTVSS | high polyreactivity
36 | QVQLVESGGGLVQAGGSLRLSCAASGLIFAYYAMGWYRQAPGKERELVAAISWTGGSTYYADSVKGRFTISRDNAKNTVYLQMTSLKPEDTAVYYCNTVGKPGFYSWGQGTQVTVSS | high polyreactivity
37 | QVQLVESGGGLVQAGGSLRLSCAASGLIFDDYAMGWYRQAPGKERELVAAISLSGGSTFYADSVKGRFTISRDNAKNTVYLQMNSLKAEDTAVYYCAAQARRAYVQTRMYYWGQGTQVTVSS | high polyreactivity
38 | QVQLVESGGGLVQAGGSLRLSCAASGLIFDHNAMGWYRQAPGKERELVAAISYSGARTYYADSVKGRFTISRDNAKNTVYLQMYSLKPEDTAVYYCNAVINSHRRHVTYDYWGQGSQVTVSS | high polyreactivity
39 | QVQLVESGGGLVQAGGSLRLSCAASGLIFDIYAMGWYRQAPGKERELVATISKRGGTTSYADSVKGRFTISRDNAKNTVYLQMNSLKPEDTAVYYCAATTLIAYDYWGQGTQVTVSS | high polyreactivity
40 | QVQLVESGGGLVQAGGSLRLSCAASGLIFDPYAMGWYRQAPGKERELVAAITWSGDSTSYADSVKGRFTISRDNAKNTVYLQMNSLKPEDTAVYYCAADGWSRSWGYWVHYGYWGQGTQVTVSS | low polyreactivity
41 | QVQLVESGGGLVQAGGSLRLSCAASGLIFDSYAMGWDRQAPRKERELVAAITYTGGSTYYADSVKGRFTISRDNAKNSVYLQMNSLKPEDTAVYYCAARRQRERYGYWGQGTQVTVSS | high polyreactivity
42 | QVQLVESGGGLVQAGGSLRLSCAASGLIFDVYDMGWYRQAPGKERELVAAISTTGGSTFYADSVKGRFTISRDNAKNTVYLQMYSLKPEDTAVYYCNADWAPTGFSGGYPYDYWGQGTQVTVSS | high polyreactivity
43 | QVQLVESGGGLVQAGGSLRLSCAASGLIFFNYYAMGWYRQAPGKERELVAAIRYGGGSTYYADSVKGRFTISRDNAKNTVYLLMNSLKPEDTAVDYCAARFKGYYRYGYWGQGTQVTVSS | high polyreactivity
